Values quoted from earlier work, collected in publication PMC9776569.

Legend:
Glu13 = Glu13 (UniProt position 13, KTAFQEALDAA); settings: redox state not stated in this article
Asp61 = Asp61 (UniProt position 61, EVDVDDCQDVA); settings: redox state not stated in this article
Glu98 = Glu98 (UniProt position 98, NKEKLEATINE); settings: redox state not stated in this article
Glu95 = Glu95 (UniProt position 95, SGANKEKLEAT); settings: redox state not stated in this article
Glu6 = Glu6 (UniProt position 6, MVKQIESKTAF); settings: redox state not stated in this article
Glu56 = Glu56 (UniProt position 56, NVIFLEVDVDD); settings: redox state not stated in this article
Asp64 = Asp64 (UniProt position 64, VDDCQDVASEC); settings: redox state not stated in this article
Glu88 = Glu88 (UniProt position 88, GQKVGEFSGAN); settings: redox state not stated in this article
Glu70 = Glu70 (UniProt position 70, VASECEVKCMP); settings: redox state not stated in this article
Asp60 = Asp60 (UniProt position 60, LEVDVDDCQDV); settings: redox state not stated in this article
Asp16 = Asp16 (UniProt position 16, FQEALDAAGDK); settings: redox state not stated in this article
Glu103 = Glu103 (UniProt position 103, EATINELV---); settings: redox state not stated in this article
Asp26 [1] = molecular target: Asp26 (UniProt position 26, KLVVVDFSATW); settings: redox state not stated in this article
Asp20 [2] = molecular target: Asp20 (UniProt position 20, LDAAGDKLVVV); settings: redox state not stated in this article
Glu68 = Glu68 (UniProt position 68, QDVASECEVKC); settings: redox state not stated in this article
Asp58 = Asp58 (UniProt position 58, IFLEVDVDDCQ); settings: redox state not stated in this article
Glu47 = Glu47 (UniProt position 47, FHSLSEKYSNV); settings: redox state not stated in this article
Lys116 = Lys116 (UniProt position 134, WRNRCKGTDVQ)
Asp18 = Asp18 (UniProt position 36, KRHGLDNYRGY)
Asp101 = Asp101 (UniProt position 119, KKIVSDGNGMN)
Asp66 = Asp66 (UniProt position 84, RWWCNDGRTPG)
Glu7 = Glu7 (UniProt position 25, VFGRCELAAAM)
Lys13 = Lys13 (UniProt position 31, LAAAMKRHGLD)
His15 = His15 (UniProt position 33, AAMKRHGLDNY)
Lys96 = Lys96 (UniProt position 114, SVNCAKKIVSD)
Asp119 = Asp119 (UniProt position 137, RCKGTDVQAWI)
Asp48 = Asp48 (UniProt position 66, TNRNTDGSTDY)
Lys33 = Lys33 (UniProt position 51, WVCAAKFESNF)
Cterm129 = Cterm129 (UniProt position 147, IRGCRL-----)
Tyr53 = Tyr53 (UniProt position 71, DGSTDYGILQI)
Tyr23 = Tyr23 (UniProt position 41, DNYRGYSLGNW)
Nterm1 [3] = molecular target: Nterm1 (UniProt position 19, LAALGKVFGRC)
Lys1 = Lys1 (UniProt position 19, LAALGKVFGRC)
Asp87 = Asp87 (UniProt position 105, ALLSSDITASV)
Lys97 = Lys97 (UniProt position 115, VNCAKKIVSDG)
Asp52 = Asp52 (UniProt position 70, TDGSTDYGILQ)
Glu35 = Glu35 (UniProt position 53, CAAKFESNFNT)
Tyr20 = Tyr20 (UniProt position 38, HGLDNYRGYSL)
His6 = His6 (UniProt position 7, SDKIIHLTDDS); settings: redox state not stated in this article
Asp20 [4] = molecular target: Asp20 (UniProt position 21, DVLKADGAILV); settings: redox state not stated in this article
Cys32 = Cys32 (UniProt position 33, FWAEWCGPCKM); settings: reduced (free thiols at Cys-32 and Cys-35)
Asp26 [5] = molecular target: Asp26 (UniProt position 27, GAILVDFWAEW); settings: redox state not stated in this article
Nterm1 [6] = molecular target: Nterm1 (UniProt position 2, ----MSDKIIH); settings: redox state not stated in this article
Cys35 = Cys35 (UniProt position 36, EWCGPCKMIAP); settings: reduced (free thiols at Cys-32 and Cys-35)
Asp40 = Asp40 (UniProt position 122, RLLLVDTPETK)
Glu101 = Glu101 (UniProt position 183, GKMVNEALVRQ)
Asp146 = Asp146 (UniProt position 228, SEDNADSGQ--)
His124 = His124 (UniProt position 206, NTHEQHLRKSE)
Glu10 = Glu10 (UniProt position 92, KKLHKEPATLI)
Glu57 = Glu57 (UniProt position 139, EKYGPEASAFT)
Glu135 = Glu135 (UniProt position 217, AQAKKEKLNIW)
Asp143 = Asp143 (UniProt position 225, NIWSEDNADSG)
Asp95 = Asp95 (UniProt position 177, AYIYADGKMVN)
Glu52 = Glu52 (UniProt position 134, PKKGVEKYGPE)
Glu67 = Glu67 (UniProt position 149, TKKMVENAKKI)
Glu75 = Glu75 (UniProt position 157, KKIEVEFDKGQ)
Glu129 = Glu129 (UniProt position 211, HLRKSEAQAKK)
His121 = His121 (UniProt position 203, KPNNTHEQHLR)
His8 = His8 (UniProt position 90, STKKLHKEPAT)
Glu142 = Glu142 (UniProt position 224, LNIWSEDNADS)
Glu73 = Glu73 (UniProt position 155, NAKKIEVEFDK)
Glu43 = Glu43 (UniProt position 125, LVDTPETKHPK)
Glu122 = Glu122 (UniProt position 204, PNNTHEQHLRK)
His46 = His46 (UniProt position 128, TPETKHPKKGV)

## Human thioredoxin (hTrx) (Homo sapiens)
Glu13
  pKa: 4.40
Asp61
  pKa: 5.30
Glu98
  pKa: 3.90
Glu95
  pKa: 4.10
Glu6
  pKa: 4.80
Glu56
  pKa: 3.10
Asp64
  pKa: 3.20
Glu88
  pKa: 3.70
Glu70
  pKa: 4.60
Asp60
  pKa: 4.20
Asp16
  pKa: 4.00
Glu103
  pKa: 4.40
Asp26 [1]
  pKa: 9.90
Asp20 [2]
  pKa: 3.80
Glu68
  pKa: 4.90
Asp58
  pKa: 2.80
Glu47
  pKa: 4.10

## Hen egg-white lysozyme (HEWL) (Gallus gallus)
Lys116
  pKa: 10.40
Asp18
  pKa: 2.66
Asp101
  pKa: 4.09
Asp66
  pKa: 0.90
Glu7
  pKa: 2.85
Lys13
  pKa: 10.60
His15
  pKa: 5.36
Lys96
  pKa: 10.80
Asp119
  pKa: 3.20
Asp48
  pKa: 1.60
Lys33
  pKa: 10.60
Cterm129
  pKa: 2.75
Tyr53
  pKa: 12.10
Tyr23
  pKa: 9.80
Nterm1 [3]
  pKa: 7.90
Lys1
  pKa: 10.90
Asp87
  pKa: 2.07
Lys97
  pKa: 10.30
Asp52
  pKa: 3.68
Glu35
  pKa: 6.20
Tyr20
  pKa: 10.30

## Escherichia coli thioredoxin 1 (EcTrx) (Escherichia coli)
His6
  pKa: 6.20
Asp20 [4]
  pKa: 3.80
Cys32
  pKa: 7.10
Asp26 [5]
  pKa: 7.50
Nterm1 [6]
  pKa: 7.40
Cys35
  pKa: 9.90

## Staphylococcal nuclease (SNase) (Staphylococcus aureus)
Asp40
  pKa: 3.87
Glu101
  pKa: 3.81
Asp146
  pKa: 3.86
His124
  pKa: 5.73
Glu10
  pKa: 2.82
Glu57
  pKa: 3.49
Glu135
  pKa: 3.76
Asp143
  pKa: 3.80
Asp95
  pKa: 2.16
Glu52
  pKa: 3.93
Glu67
  pKa: 3.76
Glu75
  pKa: 3.26
Glu129
  pKa: 3.75
His121
  pKa: 5.30
His8
  pKa: 6.52
Glu142
  pKa: 4.49
Glu73
  pKa: 3.31
Glu43
  pKa: 4.32
Glu122
  pKa: 3.89
His46
  pKa: 5.86
